Reference: publication PMC11623273, “Epitope-focused immunogens targeting the hepatitis C virus glycoproteins induce broadly neutralizing antibodies” (Science Advances, 2024)

Columns and labels:
[1] = molecular target: T1, E1_S1 (design 1W4K_08), epitope scaffold presenting the HCV E1 epitope (residues 314-324) (designed scaffold from Pyrobaculum …); test: grating-coupled interferometry (GCI, Creoptix WAVE); details: both partners purified
T1 construct: also called E1_1W4K_08
T1 chain: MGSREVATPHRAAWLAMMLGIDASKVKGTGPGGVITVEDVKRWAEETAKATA

[2] = molecular target: T1, E1_S1 (design 1W4K_08), epitope …
[3] = molecular target: T2, E2_S2_1 (design 2K6Z_01), epitope scaffold presenting HCV E2 epitope I; details: both partners purified
T2 chain: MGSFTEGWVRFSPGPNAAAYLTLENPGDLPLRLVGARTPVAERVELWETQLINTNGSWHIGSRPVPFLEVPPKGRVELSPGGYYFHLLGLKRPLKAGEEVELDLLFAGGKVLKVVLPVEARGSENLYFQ

[4] = molecular target: E2_S3_3 (design 4CIL_03), epitope scaffold presenting HCV E2 epitope I; details: both partners purified

B1: Fab fragment of neutralizing antibody IGH526 (Fab, V domains shown)
VH: VQLLEQSGAEVKRPGASVKVSCKASGYTFTSYAIHWVRQAPGQRLEWMGWINPGNGNAKYSQRFQGRVIISRDTSATTSYMELSSLTSEDTAVYSCARDRGFDLLTGHYLGLDPWGQGTLVTVSS
VL: ELTLTQPASASATPGQRVTISCSGSSSNIGGNTVNWYQHLPGAAPKLLIHNNDLRPSGVPDRFSGSKSGTSASLAVSGLQSEDEADYFCAAWDDGLNGWVFGGGTKLTVL
Kd [1]: 1.4 nM | koff [1]: 0.00181 s⁻¹ | kon [1]: 1.32e+06 M⁻¹ s⁻¹

B2: N15 (antibody, V domains shown)
VH: QVQLVESGGGVVQPGRSLRLSCAASGFTFSSYVMHWVRQAPGKGLEWVAVISYDGSNKYYADSVKGRFTISRDNSKNTLYLQMNSLRAEDTAVYYCARAPLYDILSDYWGQGTLVTVSS
VL: QLVLTQSPSASASLGASVKLTCTLSSGHSSYAIAWHQQQPEKGPRYLMKLNSDGSHSKGDGIPDRFSGSSSGAERYLTISSLQSEDEADYYCQTWGTGIVVFGGGTKLTVL
binding result [2]: binds

B3: Fab fragment of neutralizing antibody HCV1 (Fab, V domains shown)
VH: EVQLLESGGGVVQPGRSLRLSCTASGFTFNNYGMHWVRQTPGKGLEWLAVIWFDENNKYYADSVRGRFTISRDNSKNTLFLQMNSLKTEDTAMYYCARDISLVRDAFIYFDFWGLGTLVTVSS
VL: ELTLTQSPATLSLSPGERATLSCRASQSVSSYLAWYQQKPGQAPRLLIYDASNRATGIPARFSGSGSGTDFTLTISSLEPEDFAVYYCQQRSNWITFGQGTRLEIK
notes: also called Fab HCV1; F(ab) HCV1
Kd [3]: 23 nM | koff [3]: 0.00121 s⁻¹ | kon [3]: 52700 M⁻¹ s⁻¹ | Kd [4]: 2.8 nM | koff [4]: 0.000369 s⁻¹ | kon [4]: 133000 M⁻¹ s⁻¹
